Reference: the FLAb antibody collection (doi:10.7554/elife.23156)

B1: scFv; the commonest letter at each place (parent)
chain 1: EVKLDETGGGLVQPGRPMKLSCVASGFTFSDYWMNWVRQSPEKGLEWVAQIRNKPYNYETYYSDSVKGRFTISRDDSKSSVYLQMNNLRVEDMGIYYCTGSYYGMDYWGQGTSVTVS
chain 2: DVVMTQTPLSLPVSLGDQASISCRSSQSLVHSNGNTYLRWYLQKPGQSPKVLIYKVSNRFSGVPDRFSGSGSGTDFTLKISRVEAEDLGVYFCSQSTHVPWTFGGGTKLEIK

What was measured:
fluorescein = variants of: B1; assay: Kd (Tite-Seq); details: with fluorescein; format: scFv 4-4-20, heavy + light
[1] = variants of: B1; assay: yeast surface expression (ratio to wild type); higher = more expressed; details: format: scFv 4-4-20, heavy + light

Row | Kd (fluorescein) | Variant | yeast surface expression [1]
1 | ≥ 10 µM | chain 1 S101W Y103R G104S | 0.468
2 | ≥ 10 µM | chain 1 D31S W36P | 3.88
3 | 5.96 µM | chain 1 F29V V37G | 0.65
4 | ≥ 10 µM | chain 1 T28D W36Q | 0.456
5 | ≥ 10 µM | chain 1 G100H S101E | 0.4
6 | ≤ 0.000316 µM | chain 1 Y102S W108T | 0.599
7 | 0.018 µM | chain 1 Y103I | 0.964
8 | 2.35 µM | chain 1 Y103T | 0.896
9 | ≥ 10 µM | chain 1 Y32P W36K | 0.563
10 | ≥ 10 µM | chain 1 D31P V37W | 0.565
11 | ≥ 10 µM | chain 1 S101T W108C | 0.471
12 | ≥ 10 µM | chain 1 Y102S D106W | 0.385
13 | 0.00606 µM | chain 1 T28H D31K | 0.589
14 | ≥ 10 µM | chain 1 S101Q G104P | 0.539
15 | ≥ 10 µM | chain 1 Y102L M105I | 1.57
16 | ≥ 10 µM | chain 1 N35S V37L | 0.839
17 | 0.000743 µM | chain 1 S30T | 1.07
18 | ≥ 10 µM | chain 1 G104L M105L | 0.303
19 | 3.94 µM | chain 1 T28D M34G | 0.865
20 | ≥ 10 µM | chain 1 Y102P W108Y | 0.464
21 | ≥ 10 µM | chain 1 W33R N35Y | 0.794

Row | Kd (fluorescein) | Variant | yeast surface expression [1]
22 | 8.13 µM | chain 1 Y32S V37F | 0.891
23 | 0.0434 µM | chain 1 S30C W36Y | 0.691
24 | ≥ 10 µM | chain 1 Y102T G104W | 0.638
25 | 0.00166 µM | chain 1 S101A D106L | 0.302
26 | ≥ 10 µM | chain 1 Y32A W33S V37G | 0.472
27 | ≥ 10 µM | chain 1 G100Y W108L | 0.393
28 | ≥ 10 µM | chain 1 S101C D106I G109A | 0.168
29 | ≥ 10 µM | chain 1 G100E W108G G109H | 0.242
30 | ≥ 10 µM | chain 1 G100I Y103C M105Y | 0.694
31 | ≥ 10 µM | chain 1 W33F W36C | 0.455
32 | 0.021 µM | chain 1 Y102S Y103S | 1.1
33 | ≥ 10 µM | chain 1 Y102V W108G | 0.298
34 | ≥ 10 µM | chain 1 S30Y W33L | 0.755
35 | ≥ 10 µM | chain 1 G104F W108T | 0.194
36 | ≥ 10 µM | chain 1 S101T Y103Q G109I | 0.258
37 | ≥ 10 µM | chain 1 S101H Y103L | 0.78
38 | ≥ 10 µM | chain 1 D31G W33P | 0.569
39 | ≥ 10 µM | chain 1 S101L Y102W | 0.407
40 | ≥ 10 µM | chain 1 D31S V37N | 0.629
41 | ≥ 10 µM | chain 1 M105Q G109Y | 0.231
42 | ≥ 10 µM | chain 1 F29N S30Q N35K | 2.76

Row | Kd (fluorescein) | Variant | yeast surface expression [1]
43 | 0.176 µM | chain 1 Y103S M105R | 0.819
44 | ≥ 10 µM | chain 1 M105K Y107L G109V | 0.223
45 | ≥ 10 µM | chain 1 D31P W36I | 0.513
46 | ≥ 10 µM | chain 1 S101T Y103E G104K | 0.854
47 | 0.176 µM | chain 1 Y102A M105T | 1.08
48 | ≥ 10 µM | chain 1 Y102P G104Y W108S | 0.379
49 | ≥ 10 µM | chain 1 S30H W33A | 0.733
50 | 0.0146 µM | chain 1 Y103I M105W | 0.528
51 | 0.0129 µM | chain 1 M105Y | 0.866
52 | ≥ 10 µM | chain 1 M105A G109A | 0.685
53 | ≥ 10 µM | chain 1 S101L Y103K | 0.524
54 | ≥ 10 µM | chain 1 D106W G109D | 0.186
55 | ≥ 10 µM | chain 1 D106G Y107W | 0.338
56 | 0.143 µM | chain 1 T28K V37L | 1.01
57 | 0.00162 µM | chain 1 G100C | 0.893
58 | ≥ 10 µM | chain 1 Y102E Y103I | 0.862
59 | ≥ 10 µM | chain 1 M34D | 0.406
60 | 0.00142 µM | chain 1 M34L | 0.971
61 | 2.28 µM | chain 1 M34N | 0.695
62 | ≥ 10 µM | chain 1 S101D G104H D106A | 0.353
63 | ≥ 10 µM | chain 1 N35Y W36Y V37D | 1.04

The next lines start with the variant.

Row | Variant | Kd (fluorescein) | yeast surface expression [1]
64 | chain 1 W108P G109A | 3.2 µM | 0.41
65 | chain 1 M105Y W108R | ≥ 10 µM | 0.286
66 | chain 1 G104R M105R | ≥ 10 µM | 0.672
67 | chain 1 N35F V37D | ≥ 10 µM | 0.704
68 | chain 1 D106S W108V | 0.55 µM | 0.859
69 | chain 1 S101L M105L | ≥ 10 µM | 0.334
70 | chain 1 T28A D31M | 0.00239 µM | 0.955
71 | chain 1 S30W | 0.00215 µM | 0.701
72 | chain 1 G100V G109L | ≥ 10 µM | 0.256
73 | chain 1 G100A Y102R G109C | ≥ 10 µM | 0.266
74 | chain 1 T28W W33F W36P | ≥ 10 µM | 0.554
75 | chain 1 S30Y W36N | ≥ 10 µM | 0.436
76 | chain 1 D106Q | 5.66 µM | 0.846
77 | chain 1 D106N | 0.00131 µM | 0.681
78 | chain 1 T28E Y32R | 0.0318 µM | 0.928
79 | chain 1 T28H V37L | 3.43 µM | 0.691
80 | chain 1 G100F Y107I | ≥ 10 µM | 0.947
81 | chain 1 F29C W33G | ≥ 10 µM | 0.544
82 | chain 1 T28V W33G | ≥ 10 µM | 0.759
83 | chain 1 Y32Q M34I | ≥ 10 µM | 0.765
84 | chain 1 Y102G Y107F W108K | ≥ 10 µM | 0.71
85 | chain 1 F29I Y32E | ≥ 10 µM | 0.916
86 | chain 1 G100I Y107P W108I | ≥ 10 µM | 0.471
87 | chain 1 M105E D106Y | ≥ 10 µM | 0.534
88 | chain 1 Y102M Y107S | ≥ 10 µM | 0.685
89 | chain 1 D31L Y32N | ≥ 10 µM | 0.847

Row | Variant | Kd (fluorescein) | yeast surface expression [1]
90 | chain 1 G100M G104C | ≥ 10 µM | 0.544
91 | chain 1 S101Y Y102P | ≥ 10 µM | 0.326
92 | chain 1 Y103D G109H | ≥ 10 µM | 0.441
93 | chain 1 S30Y W33G | ≥ 10 µM | 0.602
94 | chain 1 Y103S D106H | ≥ 10 µM | 0.542
95 | chain 1 Y102L Y107C G109A | ≥ 10 µM | 0.168
96 | chain 1 F29W N35G | ≥ 10 µM | 0.71
97 | chain 1 F29K Y32N | ≥ 10 µM | 0.609
98 | chain 1 S30L Y32H | 2.23 µM | 0.8
99 | chain 1 G109W | ≥ 10 µM | 0.217
100 | chain 1 Y32K V37T | ≥ 10 µM | 0.623
101 | chain 1 T28C V37N | ≥ 10 µM | 0.357
102 | chain 1 Y107D | 7.72 µM | 0.779
103 | chain 1 Y102H G104F | ≥ 10 µM | 0.598
104 | chain 1 G100V S101N | ≥ 10 µM | 0.787
105 | chain 1 S101C M105Y Y107T | ≥ 10 µM | 0.488
106 | chain 1 S30H W33C | ≥ 10 µM | 0.61
107 | chain 1 M105I | 0.0335 µM | 0.914
108 | chain 1 S101R Y107L | ≥ 10 µM | 0.862
109 | chain 1 S101L Y103I | ≥ 10 µM | 0.229
110 | chain 1 W33E V37L | ≥ 10 µM | 0.674
111 | chain 1 G100L | ≥ 10 µM | 0.747
112 | chain 1 G100K | ≥ 10 µM | 0.395
113 | chain 1 F29K D31K W33G | ≥ 10 µM | 0.92
114 | chain 1 Y102I W108N | ≥ 10 µM | 0.316
115 | chain 1 Y32K W33T | ≥ 10 µM | 0.694
